We go through one molecule from patent publication US20260250378A1.

The target of test [1] is T1, purified fragment of human CNX containing Amino acids 1-481 fused to human FC region (FC-CNX) (human) (UniProt P27824).
T1 sequence (looked up): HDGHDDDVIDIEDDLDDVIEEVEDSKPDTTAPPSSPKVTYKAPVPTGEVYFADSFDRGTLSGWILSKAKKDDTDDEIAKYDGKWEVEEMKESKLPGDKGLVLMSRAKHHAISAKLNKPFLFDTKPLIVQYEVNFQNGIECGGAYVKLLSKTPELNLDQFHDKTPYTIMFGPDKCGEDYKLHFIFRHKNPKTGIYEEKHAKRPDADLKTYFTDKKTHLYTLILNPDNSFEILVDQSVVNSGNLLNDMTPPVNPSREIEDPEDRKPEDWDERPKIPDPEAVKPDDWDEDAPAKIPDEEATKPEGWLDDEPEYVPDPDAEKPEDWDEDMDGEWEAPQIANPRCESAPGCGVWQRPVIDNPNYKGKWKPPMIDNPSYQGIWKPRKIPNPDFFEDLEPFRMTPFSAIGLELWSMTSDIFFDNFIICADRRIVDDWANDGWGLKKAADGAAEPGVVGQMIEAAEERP
In words: BLI (Octet), scFv on penta-His sensor, FC-CNX 90, 30, 10, 3.3 nM.

Test [2] concerns the target T1, purified fragment of human CNX containing Amino acids 1-481 fused to human FC region (FC-CNX) (human). Nature of the test: BLI (Octet), scFv on penta-His sensor, FC-CNX 90, 30, 10, 3.3 nM; same value in the inset box of the Fitting View (Full X^2 0.108, Full R^2 0.9955).
Test [3] has the same target. In words: BLI (Octet), scFv on penta-His sensor, FC-CNX 90, 30, 10, 3.3 nM; printed without the letter E.

B1: scFv clone 8 (C008) (scFv, part only; not given: His and myc tags, phage protein, not shown: another chain or arm of the molecule; large carriers; small tags and cut ends)
scFv: QVQLVQSGGGVVQPGRSLRLSCAASGFTVSSNYMSWVRQAPGKGLEWVSVIYSGGSTYYADSVKGRFTISRDNSKNTLYLQMNSLRAEDTAVYYCARGSRAVAGAFDYWGQGTLVTVSSGGGGSGGGGSGGGGSYSELTQDPAVSVALGQTVRITCQGDSLRTYYANWYQQKPGQAPVLVMYAKNHRPSGIPDRFSGSSSGNTASLTITGAQAEDEADYYCGSRDSSGNHPVFGGGTKVTVL
As to B1, in test [1], the koff was found to be 0.000149 s⁻¹. Besides, in test [2], the Kd amounted to 0.131 nM. The kon in test [3] turned out to be 1.14e+06 M⁻¹ s⁻¹.
